The results in this text go back to patent US12599645B2, “Antibodies which bind to lysophosphatidic acid receptor 1 (LPAR1)” (DJS ANTIBODIES LTD, priority 2021, dated 2026).

The target of assay [1] is T1, LPAR1 (Homo sapiens, UniProt Q92633). The assay can be described thus: Function of humanised and affinity matured variants, method not stated. More on the design: expressed in transfected cells. As to conditions: stated in words.
Assay [2] addresses T1, LPAR1. The assay can be described thus: LPAR1 binding affinity during discovery and affinity maturation, method not stated. Also on record: expressed in transfected cells. The conditions noted are these: stated in words.
Assay [3] addresses T1, LPAR1. The assay can be described thus: Transient-transfection CIFAT, fixed/permeabilised cells. The conditions noted are these: 5 μg/mL. It is filed as binding. More on the design: HA; expressed in transfected cells; host or cells: CHO-K1 (transient, PEI).
Assay [4] concerns renal fibrosis after UUO surgery. Description: Unilateral ureteral obstruction (UUO) efficacy model of renal fibrosis. The conditions noted are these: Study 1; BMS-986020 30 mg/kg oral twice daily; antibody 20 mg/kg i.p.; Day 10. It counts as in vivo, Hartley guinea pigs. The method, then:
Unilateral ureteral obstruction (UUO) is a well-characterized disease model for renal fibrosis. The UUO model encompasses key pathophysiological features of chronic kidney disease; tubular necrosis and inflammatory cell infiltration within a relatively short period.
Two unilateral ureteral obstruction (UUO) model efficacy studies were carried out in six-week old female Hartley guinea pigs. On Day 0, UUO surgery was performed. BMS-986020 was administered orally at a dose level of 30 mg/kg in a volume of 5 mL/kg twice daily at from Day −1 to 9. Isotype control and anti-LPAR1 antibody was intraperitoneally administered at a dose level of 6 mg/kg (low) or 20 mg/kg (high) in a volume of 10 mL/kg at Day −1, Day 0, Day 3 and Day 6. The viability, clinical signs, behaviour and individual body weight was monitored daily.
The animals were sacrificed at Day 10. The ligated left kidney and right kidney weight were measured at sacrifice.
Hydroxyproline is an amino acid, making up around 14% of collagen and acts as an important indicator of the severity of fibrosis. To quantify kidney hydroxyproline content, frozen posterior right section of left kidney samples were processed by an alkaline-acid hydrolysis method. AC buffer (2.2M acetic acid/0.48M citric acid) was added to the samples, followed by centrifugation to collect the supernatant. A standard curve of hydroxyproline was constructed with serial dilutions of trans-4-hydroxy-L-proline (Sigma-Aldrich, USA) starting at 16 μg/mL. The prepared samples and standards were mixed with chloramine T solution (Nacalai Tesque Inc., Japan) and incubated for 25 minutes at room temperature. The samples were then mixed with Ehrlich's solution and heated at 65° C. for 20 minutes to develop the colour. After samples were cooled on ice and centrifuged to remove precipitates, the optical density of each supernatant was measured at 560 nm. The concentrations of hydroxyproline were calculated from the hydroxyproline standard curve. Protein concentrations of kidney samples were determined using a BCA protein assay kit (Thermo Fisher Scientific, USA) and used to normalize the calculated hydroxyproline values. Kidney hydroxyproline contents were expressed as μg per mg protein.
The left kidney was fixed in Bouin's solution and embedded in paraffin. For PAS staining, sections were cut from paraffin blocks and stained with Schiff's reagent (FUJIFILM Wako pure chemical corporation, Japan) according to the manufacturer's instructions. To visualize collagen deposition, kidney sections were stained using picro-Sirius red solution (FUJIFILM Wako pure chemical corporation). For quantification of interstitial and medulla fibrosis area, bright field images in the corticomedullary region were captured using a digital camera (DFC295) at 200-fold magnification, and the positive areas in 5 fields/section were measured using ImageJ software (National Institute of Health, USA).

Assay [5] concerns the target T1, LPAR1. The assay can be described thus: Transient-transfection CIFAT, live cells. Also on record: HA; expressed in transfected cells; host or cells: CHO-K1 (transient, PEI). It is filed as binding. As to conditions: 5 μg/mL or 20 μg/mL. The method, then:
CHO-K1 cells are seeded in multi well plates at 20,000 cells per 200 μL full growth medium and incubated for 24 hours at 37° C. In a sterile tube, 0.0309 uL/well PEI is diluted into 10 uL/well transfection medium (DMEM supplemented with 2 mM L-glutamine and Penicillin-Streptomycin). The diluted PEI is added to 100 ng/well DNA, before mixing immediately and incubating the mixture for 10 minutes at room temperature. 200 μL/well full growth medium is added to the PEI-DNA mixture, then medium in wells is taken off and 200 ul full growth medium/PEI/DNA mixture is added in the wells of the adherent cell plate. The plate is incubated for 24 hours at 37° C. The medium is discarded and replaced with 200 μL full growth medium. The plate is incubated for 24 hours at 37° C. Medium is removed from the wells and the cells incubated with primary antibody at varying concentrations for 75 minutes at 37° C. After washing and cell fixation with 4% PFA, the binding of the antibodies is detected using a goat anti-human detection antibody, incubated for 1 hour at room temperature. Fluorescence at 488 nm is measured.
CHO-K1 cells were seeded in clear 96-well plates at 20,000 cells per 200 μL full growth medium and incubated for 24 hours at 37° C. The following day, in a sterile tube, 0.0309 uL/well PEI (Generon, MW 160,000) was diluted into 10 uL/well transfection medium (DMEM supplemented with 2 mM L-glutamine and Penicillin-Streptomycin). The diluted PEI was added to 100 ng/well DNA encoding the target protein (human LPAR1 (SEQ ID NO: 62) unless otherwise stated), before vortexing immediately and incubating the mixture for 10 minutes at room temperature. 200 μL/well full growth medium was added to the PEI-DNA mixture, then medium in wells was taken off and 200 ul full growth medium/PEI/DNA mixture was added in the wells of the adherent cell plate. The plate was incubated for 24 hours at 37° C. The next day, the medium was discarded and replaced with 200 μL full growth medium. The plate was incubated for 24 hours at 37° C. The following day, medium was removed from the wells and the cells incubated with primary antibody at varying concentrations for 75 minutes at 37° C. After washing and cell fixation with 4% PFA, the binding of the antibodies was detected using a goat anti-human Alexa Fluor 488 detection antibody (Invitrogen), incubated for 1 hour at room temperature. Fluorescence at 488 nm was measured using a BMG LABTECH ClarioStar plate reader and microscopy images were taken at 10× magnification.
(§1) Anti-LPAR1 antibodies of the invention were tested alongside commercially available anti-LPAR1 antibodies in the transient-transfection CIFAT assay for live cells (method 1.11) and in the transient-transfection CIFAT assay for fixed cells (method 1.11).

A further assay relates to Irrelevant GPCR. The assay can be described thus: Transient-transfection CIFAT, irrelevant GPCR control (fixed and live cells). It counts as binding. The conditions noted are these: cells expressing irrelevant GPCR. The method, then: as §1
The results are shown in FIGS. 11 and 12, wherein the scale bar represents 100 μm.

T1 sequence (Q92633 whole entry): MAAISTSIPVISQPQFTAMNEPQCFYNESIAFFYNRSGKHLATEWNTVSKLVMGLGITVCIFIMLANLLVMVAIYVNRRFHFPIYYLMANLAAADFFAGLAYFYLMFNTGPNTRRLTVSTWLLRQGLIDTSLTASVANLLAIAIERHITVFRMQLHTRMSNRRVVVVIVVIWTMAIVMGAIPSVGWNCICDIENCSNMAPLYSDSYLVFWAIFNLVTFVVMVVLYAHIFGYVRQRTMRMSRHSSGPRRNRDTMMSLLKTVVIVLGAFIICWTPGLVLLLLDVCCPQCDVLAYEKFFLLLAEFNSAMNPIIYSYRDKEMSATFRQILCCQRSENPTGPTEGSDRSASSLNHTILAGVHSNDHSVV

B1: Antibody 7: Humanised variant of Antibody 1; VH SEQ ID NO: 33, VL SEQ ID NO: 34 (antibody, V domains shown)
VH: QVQLVQSGSELKKPGASVKVSCKASGYTFTSSGISWVRQAPGQGLEWMGEILPRSGYTNYNEGFTGRFVFSADKSVSTAYLQISSLKAEDTAVYYCARDFGSSRYAMDYWGQGTTVTVSS
VL: SIQMTQSPSSLSASVGDRVTITCQASQSVRYNVAWYQQKPGKAPKLLIYYASNRYTGVPSRFSGSGSGTDFTFTISSLQPEDIATYFCQQHYNSPLTFGGGTKLEIK
For the molecule B1, the function entry in the assay with LPAR1 [1] was “best in terms of expression, stability and function”.

B2: Antibody 13: LCDR2 mutation T56D; VH SEQ ID NO: 37, VL SEQ ID NO: 38 (antibody, V domains shown)
VH: QVQLVQSGSELKKPGASVKVSCKASGYTFTSSGISWVRQAPGQGLEWMGEILPRSGYTNYNQGFTGRFVFSADKSVSTAYLQISSLKAEDTAVYYCARDKGPSRYTMDYWGQGTTVTVSS
VL: SIQMTQSPSSLSASVGDRVTITCQASQSVRYNVAWYQQKPGKAPKLLIYYASNRYDGVPSRFSGSGSGTDFTFTISSLQPEDIATYFCQHHYSSPLTFGGGTKLEIK
As to B2, the “binding affinity for LPAR1” value in the assay with LPAR1 [2] is listed as “minimal effect on affinity”. In the assay with LPAR1 [3], the “LPAR1 fixed cell staining” value was “LPAR1-Significant fixed and live cell staining”. In assay [4], the kidney hydroxyproline entry is “No observable difference”. For the same molecule, the “LPAR1 live cell staining” value with LPAR1 [5] was “LPAR1-Significant fixed and live cell staining”. Also, the “Irrelevant GPCR cell staining” value in the assay with Irrelevant GPCR was “Irrelevant GPCR-No significant cell staining”.

B3: Antibody 9: Antibody 8 with HCDR2 mutation E61Q; VH SEQ ID NO: 35, VL SEQ ID NO: 39 (antibody, V domains shown)
VH: QVQLVQSGSELKKPGASVKVSCKASGYTFTSSGISWVRQAPGQGLEWMGEILPRSGYTNYNQGFTGRFVFSADKSVSTAYLQISSLKAEDTAVYYCARDFGSSRYAMDYWGQGTTVTVSS
VL: SIQMTQSPSSLSASVGDRVTITCQASQSVRYNVAWYQQKPGKAPKLLIYYASNRYTGVPSRFSGSGSGTDFTFTISSLQPEDIATYFCQHHYSSPLTFGGGTKLEIK
As to B3, the function result with LPAR1 [1] was “significantly enhanced the function”.

B4: Antibody 2: Murine germline sequence Antibody 1 was derived from; VH SEQ ID NO: 25, VL SEQ ID NO: 26 (antibody, V domains shown)
VH: QVQLQQSGAELARPGASVKLSCKASGYTFTSYGISWVKQRTGQGLEWIGEIYPRSGNTYYNEKFKGKATLTADKSSSTAYMELRSLTSEDSAVYFCARDYGSSRYAMDYWGQGTSVTVSS
VL: SIVMTQTPKFLPVSAGDRVTMTCKASQSVGNNVAWYQQKPGQSPKLLIYYASNRYTGVPDRFTGSGSGTDFTFTISSVQVEDLAVYFCQQHYSSPLTFGAGTKLELK
For the molecule B4, in the assay with LPAR1 [2], the “binding affinity for LPAR1” value is listed as “extremely low binding affinity”.

B5: Antibody 6: Antibody 5 with LCDR3 reversion N93S; VH SEQ ID NO: 27, VL SEQ ID NO: 32 (antibody, V domains shown)
VH: QVQLQQSGAELARPGASVKLSCKASGYTFTSSGISWVKQRTGQGLEWIGEILPRSGYTNYNEKFKGKATLTADKSSSTAYMELRSLTSEDSAVYFCARDFGSSRYAMDYWGQGTSVTVSS
VL: SIVMTQTPKFLPVSAGDRVTMTCKASQSVRYNVAWYQQKPGQSPKLLIYYASNRYTGVPDRFTGSGSGTDFTFTISSVQVEDLAVYFCQHHYSSPLTFGAGTKLELK
On to B5, for which the “binding affinity for LPAR1” value with LPAR1 [2] is on record as “large affinity gain”.

B6: Antibody 5: Antibody 3 with VL mutation Q90H; VH SEQ ID NO: 27, VL SEQ ID NO: 31 (antibody, V domains shown)
VH: QVQLQQSGAELARPGASVKLSCKASGYTFTSSGISWVKQRTGQGLEWIGEILPRSGYTNYNEKFKGKATLTADKSSSTAYMELRSLTSEDSAVYFCARDFGSSRYAMDYWGQGTSVTVSS
VL: SIVMTQTPKFLPVSAGDRVTMTCKASQSVRYNVAWYQQKPGQSPKLLIYYASNRYTGVPDRFTGSGSGTDFTFTISSVQVEDLAVYFCQHHYNSPLTFGAGTKLELK
In the case of B6, the “binding affinity for LPAR1” value in the assay with LPAR1 [2] was “improved affinity”.

B7: Antibody 4: Hybridoma related to Antibody 1 with LCDR3 mutation Q90H; VH SEQ ID NO: 29, VL SEQ ID NO: 30 (antibody, V domains shown)
VH: QVQLQQSGAELARPGASVKLSCKASGYTFTSSGISWVKQRTGQGLEWIGEIYPRSGYTNYNEKFKGKASLTADKSSRTAYMELRSLTSEDSAVYFCARDYDNSRYALDYWGQGTSVTVSS
VL: SIVMTQTPKFLPVSAGDRVTMTCKASQSVGYNVAWYQQKTGQSPKLLIYYASNRYTGVPDRFTGSGSGTDFTFTISSVQVEDLAVYFCQHHYSSPLTFGAGTKLELK
As for B7, the “LPAR1 fixed cell staining” value in the assay with LPAR1 [3] was “LPAR1-Significant fixed and live cell staining”. Further, in the assay with LPAR1 [5], the “LPAR1 live cell staining” value is “LPAR1-Significant fixed and live cell staining”. The “Irrelevant GPCR cell staining” value with Irrelevant GPCR was “Irrelevant GPCR-No significant cell staining”.
